Data from patent US9884093B2 (Eli Lilly and Company, priority 2015, dated 2018).
Where two headings read alike, the source gives them in different places.

Tests used:
[1] = target: T1, glucose-dependent insulinotropic polypeptide receptor, hGIP-R (Homo sapiens, UniProt P48546); test: hGIP-R functional cAMP assay; conditions: read-out: EC50 GIP Receptor Assay
T1 sequence (P48546 22-466): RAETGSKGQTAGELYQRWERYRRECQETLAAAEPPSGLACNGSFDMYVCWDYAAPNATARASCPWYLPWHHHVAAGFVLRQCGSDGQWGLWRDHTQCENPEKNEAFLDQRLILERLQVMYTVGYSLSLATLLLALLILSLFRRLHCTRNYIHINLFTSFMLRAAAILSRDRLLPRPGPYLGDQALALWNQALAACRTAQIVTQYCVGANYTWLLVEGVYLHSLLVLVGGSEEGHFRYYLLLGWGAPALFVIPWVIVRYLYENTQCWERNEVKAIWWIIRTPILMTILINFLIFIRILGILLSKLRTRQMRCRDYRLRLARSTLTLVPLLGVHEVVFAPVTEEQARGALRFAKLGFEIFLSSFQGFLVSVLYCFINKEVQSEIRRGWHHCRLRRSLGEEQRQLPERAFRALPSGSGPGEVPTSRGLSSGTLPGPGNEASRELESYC
Description: (§1) The hGIP-R functional assay uses hGIP-R (Usdin, T. B., Gruber, C., Modi, W. and Bonner, T. I., GenBank: AAA84418.1) cloned into pcDNA3.1 (Promega)-NeoR plasmid. The hGIP-R-pcDNA3.1/Neo plasmid is transfected into Chinese Hamster Ovary cells, CHO-S, for suspension cultures and selected in the presence of 500 μg/mL Geneticin (Invitrogen).

[2] = Stability in co-formulation with GLP-1R agonist (SEC-HPLC, RP-HPLC); format: physicochemical; conditions: four weeks
Description: Examples 1 and 3 are prepared and dialyzed against C6.5 (10 mM Citrate pH 6.5) using the same method as described above for preparation into T7 buffer. Compounds are formulated separately at 1 mg/mL peptide in buffer C6.5, C6.5M (10 mM Citrate, 46.4 mg/mL D-mannitol, pH 6.5), C6.5T (10 mM Citrate, 0.02% polysorbate-80, pH 6.5), and C6.5MT (10 mM Citrate, 46.4 mg/mL D-mannitol, 0.02% polysorbate-80, pH 6.5). A stock concentration of 46.5 mg/mL of dulaglutide in C6.5 is used to formulate dulaglutide at 3 mg/mL in C6.5 and C6.5MT. Co-formulations in C6.5MT are prepared having 3 mg/mL dulaglutide and 1 mg/mL Example 1, or 3 mg/mL dulaglutide and 1 mg/mL Example 3. Each formulated sample is transferred to three vials and maintained at 4° C., 25° C. and 40° C. Samples are assessed every two weeks for a total of four weeks. Samples are visually assessed for turbidity and phase separation. Stability is assessed by RP-HPLC and SEC-HPLC as described above. Both described HPLC methods give good separation of Example compounds and dulaglutide main peaks as well as all degradation peaks produced by stressing the sample at pH 9 and 40° C. for 3 days.

[3] = target: T2, human glucagon receptor (hGcg-R) (Homo sapiens, UniProt P47871); test: hGcg-R functional cAMP assay; format: cell-based; conditions: read-out: EC50 Gcg Receptor Assay
T2 construct: expressed in transfected cells; host or cells: 293HEK cells, hygromycin-selected

[4] = target: human Glucagon-Like Peptide-1 receptor (hGLP-1-R) (Homo sapiens, UniProt P43220); test: hGLP-1-R functional cAMP assay; conditions: read-out: EC50 GLP-1 Receptor Assay
Chain of human Glucagon-Like Peptide-1 receptor (hGLP-1-R) (P43220 24-463): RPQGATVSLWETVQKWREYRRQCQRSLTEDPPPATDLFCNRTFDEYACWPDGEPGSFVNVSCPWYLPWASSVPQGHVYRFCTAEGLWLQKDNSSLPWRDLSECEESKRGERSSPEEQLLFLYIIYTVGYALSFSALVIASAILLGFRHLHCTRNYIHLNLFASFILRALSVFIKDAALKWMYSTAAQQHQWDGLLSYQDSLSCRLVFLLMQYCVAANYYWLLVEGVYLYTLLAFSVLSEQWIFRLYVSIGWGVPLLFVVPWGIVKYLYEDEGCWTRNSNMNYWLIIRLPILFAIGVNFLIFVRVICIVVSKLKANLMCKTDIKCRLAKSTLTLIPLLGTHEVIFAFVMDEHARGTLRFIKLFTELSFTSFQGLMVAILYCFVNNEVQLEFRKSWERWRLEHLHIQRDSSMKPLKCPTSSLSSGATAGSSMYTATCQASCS
Description: as §1

T2 sequence (P47871 26-477): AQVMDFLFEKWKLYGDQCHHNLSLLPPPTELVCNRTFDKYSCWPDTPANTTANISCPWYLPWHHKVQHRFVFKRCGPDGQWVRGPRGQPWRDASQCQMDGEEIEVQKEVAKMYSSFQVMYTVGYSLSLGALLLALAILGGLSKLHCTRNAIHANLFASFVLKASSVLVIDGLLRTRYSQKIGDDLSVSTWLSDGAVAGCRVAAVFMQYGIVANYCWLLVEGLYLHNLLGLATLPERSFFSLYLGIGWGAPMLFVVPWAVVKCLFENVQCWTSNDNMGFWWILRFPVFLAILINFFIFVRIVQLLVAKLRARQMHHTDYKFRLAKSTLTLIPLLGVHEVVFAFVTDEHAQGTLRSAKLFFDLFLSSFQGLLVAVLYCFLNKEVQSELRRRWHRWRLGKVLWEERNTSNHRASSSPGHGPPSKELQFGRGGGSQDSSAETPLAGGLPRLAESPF

EC50 ([1]; sample C6.5-4 C.-4 wk): > 100 nM
EC50 ([1]; sample C6.5-40 C.-4 wk): > 100 nM
EC50 ([1]; sample C6.5MT-4 C.-4 wk): > 100 nM
EC50 ([1]; sample C6.5MT-40 C.-4 wk): > 100 nM
EC50 ([3]; sample C6.5-4 C.-4 wk): 51.9 ± 68.1 nM
EC50 ([3]; sample C6.5-40 C.-4 wk): > 100 nM
EC50 ([3]; sample C6.5MT-4 C.-4 wk): 54 ± 65 nM
EC50 ([3]; sample C6.5MT-40 C.-4 wk): > 100 nM
EC50 ([4]; sample C6.5-4 C.-4 wk): 0.37 ± 0.11 nM
EC50 ([4]; sample C6.5-40 C.-4 wk): 0.31 ± 0.17 nM
EC50 ([4]; sample C6.5MT-4 C.-4 wk): 0.4 ± 0.14 nM
EC50 ([4]; sample C6.5MT-40 C.-4 wk): 0.29 ± 0.09 nM
Substance: dulaglutide
GLP-1-Fc Δ % Main Peak ([2]; RP-HPLC, C6.5, 4° C.): −1.45%
GLP-1-Fc Δ % Main Peak ([2]; RP-HPLC, C6.5, 25° C.): >−10%
GLP-1-Fc Δ % Main Peak ([2]; RP-HPLC, C6.5, 40° C.): −9.96%
GLP-1-Fc Δ % Main Peak ([2]; RP-HPLC, C6.5MT, 4° C.): −0.46%
GLP-1-Fc Δ % Main Peak ([2]; RP-HPLC, C6.5MT, 25° C.): −0.8%
GLP-1-Fc Δ % Main Peak ([2]; RP-HPLC, C6.5MT, 40° C.): −7.47%
GLP-1-Fc Δ % Main Peak ([2]; SEC-HPLC, C6.5, 4° C.): 0.19%
GLP-1-Fc Δ % Main Peak ([2]; SEC-HPLC, C6.5, 25° C.): −0.54%
GLP-1-Fc Δ % Main Peak ([2]; SEC-HPLC, C6.5, 40° C.): >−10%
GLP-1-Fc Δ % Main Peak ([2]; SEC-HPLC, C6.5MT, 4° C.): 0.29%
GLP-1-Fc Δ % Main Peak ([2]; SEC-HPLC, C6.5MT, 25° C.): −0.87%
GLP-1-Fc Δ % Main Peak ([2]; SEC-HPLC, C6.5MT, 40° C.): −0.83%
